Test [1] addresses T1, Human MET protein on the cell surface (human, UniProt P08581 25-1390).
T1 construct: whole, on cells; also called MET single-positive cells (NCI-H1975, NCI-H1703)
The test can be described thus: FACS on NCI-H1703 cells (MET single-positive).

The target of test [2] is T1, Human MET protein on the cell surface. The test can be described thus: cell-based or functional assay.
Test [3] deals with T2, Human HER3 protein on the cell surface (human, UniProt P21860 20-1342).
T2 construct: whole, on cells; also called HER3 single-positive cells (MDA-MB-453)
Briefly: FACS on MDA-MB-453 cells (HER3 single-positive).

In test [4] the target is T2, Human HER3 protein on the cell surface. Briefly: cell-based or functional assay.
Test [5] shares this target. Briefly: FACS on HCC827 Osimertinib-resistant cells (HER3/MET double-positive).
The target is the same in test [6]. The test can be described thus: cell-based or functional assay. The source holds these as a separate data set.
The target of test [7] is T3, Human HER3 and MET proteins together on HER3/MET double-positive cells (human, UniProt P21860 20-1342; P08581 25-1390). Briefly: cell-based or functional assay.
Test [8] has as its target T3, Human HER3 and MET proteins together on …. The test can be described thus: FACS on HCC827 Osimertinib-resistant cells (HER3/MET double-positive).
The target is the same in test [9]. The test can be described thus: cell-based or functional assay. This is another data set of the same source.
For test [10] the target is unchanged. Briefly: cell-based or functional assay. The source holds these as a separate data set.
In test [11] the target is T4, His-tagged human HER3 antigen (human, UniProt P21860 20-643).
T4 construct: Soluble antigen used as analyte in SPR; not shown: His tag
The test can be described thus: SPR, Biacore 8K, protein A chip; ADC captured, His-tagged antigen 6.25-400 nM as analyte; 1:1 Langmuir.

Test [12] has as its target T5, His-tagged human MET antigen (human, UniProt P08581 25-932).
T5 construct: Soluble antigen used as analyte in SPR; not shown: His tag
Described as above.

The target of test [13] is T4, His-tagged human HER3 antigen. The description is as above. The source holds these as a separate data set.
Test [14] has the same target. Briefly: SPR, Biacore 8K; antibody captured, His-tagged human HER3 antigen 6.25-400 nM as analyte; 1:1 Langmuir.
The target in test [15] is T2, Human HER3 protein on the cell surface. The test can be described thus: cell-based or functional assay. This is another data set of the same source.

Where two headings read alike, the source gives them in different places.

The EC50 is the concentration at which the effect is half-maximal. A low value points to a more potent agent. In general, Kd refers to the concentration at which binding is half-saturated. As a reminder, the koff is the rate constant with which the complex falls apart. One may read the kon as the rate constant with which the complex forms.

T1 sequence (P08581 25-1390): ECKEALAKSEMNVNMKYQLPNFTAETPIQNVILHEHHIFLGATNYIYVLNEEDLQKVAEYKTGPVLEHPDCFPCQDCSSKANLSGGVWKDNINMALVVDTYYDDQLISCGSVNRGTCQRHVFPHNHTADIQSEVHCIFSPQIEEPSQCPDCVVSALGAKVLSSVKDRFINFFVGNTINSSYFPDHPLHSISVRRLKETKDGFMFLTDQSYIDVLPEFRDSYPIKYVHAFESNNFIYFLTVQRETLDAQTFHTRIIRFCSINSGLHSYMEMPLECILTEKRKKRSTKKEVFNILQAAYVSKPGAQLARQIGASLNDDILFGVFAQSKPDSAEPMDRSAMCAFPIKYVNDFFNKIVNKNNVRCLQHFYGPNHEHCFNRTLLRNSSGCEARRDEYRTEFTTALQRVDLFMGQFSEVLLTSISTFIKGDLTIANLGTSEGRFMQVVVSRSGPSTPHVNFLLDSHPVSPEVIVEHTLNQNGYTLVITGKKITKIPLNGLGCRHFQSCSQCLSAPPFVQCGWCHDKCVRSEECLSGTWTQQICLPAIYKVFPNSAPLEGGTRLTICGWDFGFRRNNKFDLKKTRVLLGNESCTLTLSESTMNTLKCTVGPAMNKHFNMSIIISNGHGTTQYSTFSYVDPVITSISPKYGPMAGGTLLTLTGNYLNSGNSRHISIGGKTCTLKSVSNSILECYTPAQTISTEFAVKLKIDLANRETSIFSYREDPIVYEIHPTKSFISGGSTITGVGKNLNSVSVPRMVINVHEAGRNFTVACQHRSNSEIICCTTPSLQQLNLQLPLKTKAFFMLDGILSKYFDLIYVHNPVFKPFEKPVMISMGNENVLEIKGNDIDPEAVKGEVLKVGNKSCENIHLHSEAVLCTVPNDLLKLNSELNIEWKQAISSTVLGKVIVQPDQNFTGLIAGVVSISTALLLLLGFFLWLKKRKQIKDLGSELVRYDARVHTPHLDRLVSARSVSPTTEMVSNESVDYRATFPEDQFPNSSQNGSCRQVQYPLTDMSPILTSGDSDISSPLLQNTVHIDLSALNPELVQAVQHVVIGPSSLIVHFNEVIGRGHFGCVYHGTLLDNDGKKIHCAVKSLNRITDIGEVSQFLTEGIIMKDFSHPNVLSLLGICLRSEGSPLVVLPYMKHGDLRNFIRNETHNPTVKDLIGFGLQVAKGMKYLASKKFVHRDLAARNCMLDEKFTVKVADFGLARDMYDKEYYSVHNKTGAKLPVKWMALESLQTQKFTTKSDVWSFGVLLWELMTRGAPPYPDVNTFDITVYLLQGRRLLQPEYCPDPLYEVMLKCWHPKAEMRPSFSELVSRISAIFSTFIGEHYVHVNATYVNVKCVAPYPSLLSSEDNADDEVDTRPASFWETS
T5 sequence (P08581 25-932 limits assumed): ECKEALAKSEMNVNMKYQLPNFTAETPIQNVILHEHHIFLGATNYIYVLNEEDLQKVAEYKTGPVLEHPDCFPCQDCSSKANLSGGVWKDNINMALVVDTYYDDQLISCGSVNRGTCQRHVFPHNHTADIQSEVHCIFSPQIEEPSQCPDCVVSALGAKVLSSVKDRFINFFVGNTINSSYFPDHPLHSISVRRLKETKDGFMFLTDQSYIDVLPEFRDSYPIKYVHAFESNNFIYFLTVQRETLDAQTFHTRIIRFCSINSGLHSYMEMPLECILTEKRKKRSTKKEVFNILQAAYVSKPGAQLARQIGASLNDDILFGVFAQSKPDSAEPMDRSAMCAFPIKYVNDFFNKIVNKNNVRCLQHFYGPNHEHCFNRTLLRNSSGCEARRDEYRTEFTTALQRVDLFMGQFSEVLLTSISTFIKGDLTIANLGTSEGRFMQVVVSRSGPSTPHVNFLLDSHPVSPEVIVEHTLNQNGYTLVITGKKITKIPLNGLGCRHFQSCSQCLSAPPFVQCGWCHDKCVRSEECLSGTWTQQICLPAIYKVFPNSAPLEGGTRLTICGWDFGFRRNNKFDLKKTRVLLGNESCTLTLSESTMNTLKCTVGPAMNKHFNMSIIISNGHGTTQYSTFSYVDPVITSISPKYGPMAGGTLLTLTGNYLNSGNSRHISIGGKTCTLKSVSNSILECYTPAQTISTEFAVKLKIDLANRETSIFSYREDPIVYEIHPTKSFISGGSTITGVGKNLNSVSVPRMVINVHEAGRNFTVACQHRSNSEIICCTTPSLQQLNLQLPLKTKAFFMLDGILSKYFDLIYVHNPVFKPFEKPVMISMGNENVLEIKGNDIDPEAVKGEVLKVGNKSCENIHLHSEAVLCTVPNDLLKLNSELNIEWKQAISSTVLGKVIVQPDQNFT

B1: Naked antibody of the control antibody U3-1402 (U3-1402 Ab) (antibody, human IgG1, kappa, V domains shown)
VH: QVQLQQWGAGLLKPSETLSLTCAVYGGSFSGYYWSWIRQPPGKGLEWIGEINHSGSTNYNPSLKSRVTISVETSKNQFSLKLSSVTAADTAVYYCARDKWTWYFDLWGRGTLVTVSS
VL: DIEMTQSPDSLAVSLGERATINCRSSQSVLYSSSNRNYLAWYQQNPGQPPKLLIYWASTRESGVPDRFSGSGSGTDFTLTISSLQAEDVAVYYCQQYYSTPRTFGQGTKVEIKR
notes: Anti-HER3 control
Take B1: the values for the Maximum fluorescence value in [1], in test [3] and in test [5] were 90, 1990 and 1240, respectively. The “Minimum cell viability (%)” value in test [2] was 72.9%; in test [4], 63.9%; in [6], 73.6%. Further, the EC50 in test [3] stood at 0.25 nM; in [5], 0.46 nM.

B2: Anti-HER3/MET bispecific antibody 2232-01 (A13-A) (bispecific antibody, human IgG1, kappa)
heavy 1: not shown
light 1: DIQMTQSPSSVSASVGDRVTITCRASQGINTWLAWYQQKPGKAPKLLIYAASSLKSGVPSRFSGSGSGADFTLTISSLQPEDFATYYCQQANSFPLTFGGGTKVEIKGGGGSGIPPKIECLPIDISIDEGKVLTVASAFTGEPTPEVTWSTGGRKIHSQEQGRFHIENTDDSTTLTIKDVQKQDGGLYTLTLRNEFGSDSATVNIHIRSI
heavy 2: QVQLVQSGGGLVQPGRSLRLSCAASGFTFDDYAMHWVRQAPGKGLEWVSGISWNSGSIGYADSVKGRFTISRDNAKNSLYLQMNSLRAEDTALYYCAKEGLPGLDYWGQGTLVTVSSASTKGPSVFPLAPSSKSTSGGTAALGCLVKDYFPEPVTVSWNSGALTSGVHTFPAVLQSSGLYSLSSVVTVPSSSLGTQTYICNVNHKPSNTKVDKKVEPKSCDKTHTCPPCPAPELLGGPSVFLFPPKPKDTLMISRTPEVTCVVVDVSHEDPEVKFNWYVDGVEVHNAKTKPREEQYNSTYRVVSVLTVLHQDWLNGKEYKCKVSNKALPAPIEKTISKAKGQPREPQVCTLPPSREEMTKNQVSLSCAVKGFYPSDIAVEWESNGQPENNYKTTPPVLDSDGSFFLVSKLTVDKSRWQQGNVFSCSVMHEALHNHYTQKSLSLSPGK
light 2: DIQMTQSPSSLSASIGDRATITCRASQHVGTYLNWYQQKPGKTPKLLISGAANLQSGVPSRFSGSGSGTDFTLTISSLQPEDFATYYCQQSYNTPPFSFGQGTKVEIKRTVAAPSVFIFPPSDEQLKSGTASVVCLLNNFYPREAKVQWKVDNALQSGNSQESVTEQDSKDSTYSLSSTLTLSKADYEKHKVYACEVTHQGLSSPVTKSFNRGEC
notes: Four chains: H1 = A13 VH-GGGGS-Obscurin-O chain-IgG1 Fc1 (S354C/T366W); L1 = A13 VL-GGGGS-Titin-T chain; H2 = antibody A VH-CH1-IgG1 Fc2 (Y349C/T366S/L368A/Y407V); L2 = antibody A VL-CL
Regarding B2, the half-maximal effective concentration (EC50) in test [1] is 1.03 nM; in [3], 2.72 nM; in test [8] it was 0.52 nM. Moreover, the Maximum fluorescence value in test [1] came to 2430; in [3], 1950; in test [8], 2470. Further, the “Minimum cell viability (%)” value came to 0.6% in test [2], 21.7% in test [4], 12.4% in [9] and 24.7% in test [10]. Moreover, the “Endocytosis ratio at 0 h (FACS)” value in test [7] turned out to be 0%. The “Endocytosis ratio at 0.5 h (FACS)” value in test [7] was 67.9%. Further, the “Endocytosis ratio at 2 h (FACS)” value in test [7] worked out at 83.2%. Besides, the “Endocytosis ratio at 6 h (FACS)” value in [7] amounted to 84.1%.

B3: Anti-HER3/MET antibody-drug conjugate ADC-2 (bispecific antibody, human IgG1, kappa)
heavy 1: not shown
light 1: DIVLTQSPDSLAVSLGERATINCRADKSVSTSTYNYLHWYQQKPGQPPKLLIYLASNLASGVPDRFSGSGSGTDFTLTISSLQAEDVAVYYCQHSRDLPPTFGQGTKLEIKGGGGSGIPPKIECLPIDISIDEGKVLTVASAFTGEPTPEVTWSTGGRKIHSQEQGRFHIENTDDSTTLTIKDVQKQDGGLYTLTLRNEFGSDSATVNIHIRSI
heavy 2: QVQLVQSGGGLVQPGRSLRLSCAASGFTFDDYAMHWVRQAPGKGLEWVSGISWNSGSIGYADSVKGRFTISRDNAKNSLYLQMNSLRAEDTALYYCAKEGLPGLDYWGQGTLVTVSSASTKGPSVFPLAPSSKSTSGGTAALGCLVKDYFPEPVTVSWNSGALTSGVHTFPAVLQSSGLYSLSSVVTVPSSSLGTQTYICNVNHKPSNTKVDKKVEPKSCDKTHTCPPCPAPELLGGPSVFLFPPKPKDTLMISRTPEVTCVVVDVSHEDPEVKFNWYVDGVEVHNAKTKPREEQYNSTYRVVSVLTVLHQDWLNGKEYKCKVSNKALPAPIEKTISKAKGQPREPQVCTLPPSREEMTKNQVSLSCAVKGFYPSDIAVEWESNGQPENNYKTTPPVLDSDGSFFLVSKLTVDKSRWQQGNVFSCSVMHEALHNHYTQKSLSLSPGK
light 2: DIQMTQSPSSLSASIGDRATITCRASQHVGTYLNWYQQKPGKTPKLLISGAANLQSGVPSRFSGSGSGTDFTLTISSLQPEDFATYYCQQSYNTPPFSFGQGTKVEIKRTVAAPSVFIFPPSDEQLKSGTASVVCLLNNFYPREAKVQWKVDNALQSGNSQESVTEQDSKDSTYSLSSTLTLSKADYEKHKVYACEVTHQGLSSPVTKSFNRGEC
modifications: compound 9-A on reduced cysteines, positions not given; compound 9-A (exatecan derivative linker-drug) on reduced cysteines, positions not given; target DAR 6 for the whole molecule
notes: target DAR 6; distribution of the drug over the chains not reported for ADC-2
In test [11], B3 returned a Kd of 19.7 nM, a koff of 0.0108 s⁻¹ and a kon of 546000 M⁻¹ s⁻¹.

B4: Anti-HER3/MET antibody-drug conjugate ADC-5 (bispecific antibody, human IgG1, kappa)
heavy 1: not shown
light 1: DIQMTQSPSSVSASVGDRVTITCRASQGISTWLAWYQQKPGKAPKLLIYAASSLKSGVPSRFSGSGSGTDFTLTISSLQPEDFATYYCQQANSFPLTFGGGTKVEIKGGGGSGIPPKIECLPIDISIDEGKVLTVASAFTGEPTPEVTWSTGGRKIHSQEQGRFHIENTDDSTTLTIKDVQKQDGGLYTLTLRNEFGSDSATVNIHIRSI
heavy 2: QVQLVQSGGGLVQPGRSLRLSCAASGFTFDDYAMHWVRQAPGKGLEWVSGISWNSGSIGYADSVKGRFTISRDNAKNSLYLQMNSLRAEDTALYYCAKEGLPGLDYWGQGTLVTVSSASTKGPSVFPLAPSSKSTSGGTAALGCLVKDYFPEPVTVSWNSGALTSGVHTFPAVLQSSGLYSLSSVVTVPSSSLGTQTYICNVNHKPSNTKVDKKVEPKSCDKTHTCPPCPAPELLGGPSVFLFPPKPKDTLMISRTPEVTCVVVDVSHEDPEVKFNWYVDGVEVHNAKTKPREEQYNSTYRVVSVLTVLHQDWLNGKEYKCKVSNKALPAPIEKTISKAKGQPREPQVCTLPPSREEMTKNQVSLSCAVKGFYPSDIAVEWESNGQPENNYKTTPPVLDSDGSFFLVSKLTVDKSRWQQGNVFSCSVMHEALHNHYTQKSLSLSPGK
light 2: DIQMTQSPSSLSASIGDRATITCRASQHVGTYLNWYQQKPGKTPKLLISGAANLQSGVPSRFSGSGSGTDFTLTISSLQPEDFATYYCQQSYNVPPFSFGQGTKVEIKRTVAAPSVFIFPPSDEQLKSGTASVVCLLNNFYPREAKVQWKVDNALQSGNSQESVTEQDSKDSTYSLSSTLTLSKADYEKHKVYACEVTHQGLSSPVTKSFNRGEC
modifications: compound 9-A on reduced cysteines, positions not given; compound 9-A (exatecan derivative linker-drug) on reduced cysteines, positions not given; average DAR 5.87 for the whole molecule
In test [12], B4 showed a dissociation constant (Kd) of 13.1 nM, an off-rate constant (koff) of 0.000872 s⁻¹ and an on-rate constant (kon) of 66500 M⁻¹ s⁻¹. In addition, in test [13], the dissociation constant Kd turned out to be 14.3 nM, the off-rate constant (koff) stood at 0.00721 s⁻¹ and the on-rate (kon) is 505000 M⁻¹ s⁻¹.

B5: Anti-HER3 antibody A (antibody, human IgG1, kappa, V domains shown)
VH: QVQLVQSGGGLVQPGRSLRLSCAASGFTFDDYAMHWVRQAPGKGLEWVSGISWNSGSIGYADSVKGRFTISRDNAKNSLYLQMNSLRAEDTALYYCAKEGLPGLDYWGQGTLVTVSS
VL: DIQMTQSPSSLSASIGDRATITCRASQHVGTYLNWYQQKPGKTPKLLISGAANLQSGVPSRFSGSGSGTDFTLTISSLQPEDFATYYCQQSYNTPPFSFGQGTKVEIKR
In test [1], B5 came in with a Maximum fluorescence value of 81. The “Minimum cell viability (%)” value in [2] was determined as 77.8%. In test [3], this molecule came in with an EC50 of 0.48 nM and a Maximum fluorescence value of 1860. In test [14], this molecule had a Kd of 14.5 nM, a dissociation rate constant (koff) of 0.0103 s⁻¹ and an association rate constant (kon) of 707000 M⁻¹ s⁻¹. The “Minimum cell viability (%)” value in test [4] was found to be 28.5%. For the same molecule, in test [15], the “Endocytosis ratio at 0 h (FACS)” value came to 0%, the “Endocytosis ratio at 0.5 h (FACS)” value stood at 55.5%, the “Endocytosis ratio at 2 h (FACS)” value is 80% and the “Endocytosis ratio at 6 h (FACS)” value was 82.2%. Moreover, in test [5], the EC50 was found to be 2.06 nM and the Maximum fluorescence value is 1020. In test [6], the “Minimum cell viability (%)” value came to 63.8%.

(Values after patent EP4778941A1 (Jiangsu Hengrui Pharmaceuticals Co., Ltd., dated 2025).)
